From patent US9791449B2, “Ovarian cancer stem cells and methods of isolation and uses thereof” (THE GENERAL HOSPITAL CORPORATION, priority 2011, dated 2017)
“Also recorded” adds a separate entry of the source.

What was measured:
[1] = test system: 3+/Ecad− OVCAR-5 cells; assay: Colony formation assay of FACS-separated cells; format: cell-based, human; settings: OVCAR-5 3+/Ecad− cells, 2000 cells in six-well plates; MIS 30 ug/ml or Doxorubicin 30 nM vs media, 14 days
Experimental: Colony formation was performed as previously described (4; wei 2010). 3+/Ecad− or 3−/Ecad+ cells separated from the ovarian cancer cell lines were treated with MIS or doxorubicin, cisplatin, or taxol, then plated on 6-well plates containing 2 ml/well complete DMEM medium at 500, 1000, or 2000 cells/well, and incubated for 14 days at 37° C., with a media change at day 7. Cells separated from primary ascites were plated on 12-well plates coated by metrigel or by agarose for colony formation assays at 25,000, 50,000, or 100,000 cells/well. Cells were seeded on 1:2 metrigel or in 0.4% agarose over a 0.8% layer, and incubated for 3-4 weeks at 37° C. At day 14 (cell lines) or day 21 (ascites), plates were washed with 1×PBS, and cells fixed with methanol. Resulting colonies were stained with Giemsa and the stained area captured and analyzed using Image J (Rasband, NIH, USA, http://rsb.info.nih.gov/ij/). Large colonies greater than 4 mm at 10× magnification were also counted and compared.

[2] = test system: OVCAR-5 cells; assay: Cell cycle analysis by flow cytometry; format: cell-based, human; settings: 100 μg/mL (714 nM) MIS or 60 nM doxorubicin, 48 h
Experimental: OVCAR-5 was grown to 50-60% confluency in DMEM with 10% FCS, untreated or treated with 100 μg/mL (714 nM) MIS or 60 nM doxorubicin for 48 h, harvested, and incubated with 10 μg/mL Hoechst 33342 at 37° C. for 30 min or 40 μg/mL propidium iodide (Sigma) at 25° C. for 30 min. Cells were stained with anti-human CD24-PE, anti-mouse/human CD44-APC/Cy7, anti-human Epcam-APC, and anti-human Ecadherin-FITC for 20 min at 4° C. and fixed in paraformaldehyde (1%), and the cell cycle was analyzed using the SORP LSRII.

[3] = test system: MOVCAR-7 and MOVCAR-8 cell lines; assay: qPCR of CDK inhibitor mRNAs relative to GAPDH; format: cell-based, mouse
Experimental: Total microRNA (miRNAs) were extracted from the different cell lines HOSE-4, HOSE-6, OVCAR-5, OVCAR-3, OVCAR-8, IGROV-1, and SKOV-3 using the miRNeasy Mini kit (QIAGEN) and reverse-transcribed to cDNAs using the TaqMan MicroRNA Reverse Transcription Kit (Applied Biosystems). Levels of Let-7c miRNAs were measured by quantitative PCR using TagMan Let-7 probes (Applied Biosystems; part no. 4373167) with U47 RNA as internal standard for normalization. Total mRNAs were also extracted from separated and unseparated OVCAR-5, MOVCAR-7, and MOVCAR-8 cell lines using an RNeasy Mini kit (QIAGEN) and reverse-transcribed to cDNAs using the SuperScript III Reverse Transcription Kit (Invitrogen). Levels of Lin28 and cyclin-dependent kinase (CDK) inhibitor mRNAs were measured by quantitative PCR with GAPDH as an internal standard using the following primers: […]
LIN28 F ([…])(SEQ ID NO: 34) and R ([…])(SEQ ID NO: 35); p15 F ([…])(SEQ ID NO: 36) and R ([…])(SEQ ID NO: 37); p16 F ([…])(SEQ ID NO: 38) and R ([…])(SEQ ID NO: 39); p18 F ([…])(SEQ ID NO: 40) and R ([…])(SEQ ID NO: 41); p19F ([…])(SEQ ID NO: 42) and R ([…])(SEQ ID NO: 43); p21 F ([…])(SEQ ID NO: 44) and R ([…])(SEQ ID NO: 45); p27 F ([…])(SEQ ID NO: 46) and R ([…])(SEQ ID NO: 47); CDK2 F ([…])(SEQ ID NO: 48) and R ([…])(SEQ ID NO: 49); CDK4 F ([…])(SEQ ID NO: 50) and R([…])(SEQ ID NO: 51); CDK6 F ([…])(SEQ ID NO: 52) and R ([…])(SEQ ID NO: 53); and GAPDH F ([…])(SEQ ID NO: 54) and R ([…])(SEQ ID NO: 55). Relative fold changes of Let-7c miRNAs and Lin28 and CDK inhibitor mRNAs were calculated as ΔCt or ΔΔCt (1) (n=3 for each primer).

[4] = test system: SMAD1/5/8 in MOVCAR-8 cells; assay: Western blot with phospho-Smad1/5/8 antibody; format: cell-based, mouse; settings: MOVCAR-8, 20 ug/ml MIS for 15 min, 2, 4 and 6 h
Experimental: (§1) FIGS. 5A-5B show MISRII is expressed in ovarian cancer cell lines and SMAD 1/5/8 is phosphorylated after treatment with purified MIS. FIG. 5A show expression of MIS type II receptor in human ovarian cancer cell lines OVCAR-5, IGROV-1 and SKOV-3, and in mouse ovarian cancer cell line MOVCAR-8 were analyzed by immunoprecipitation and cross immunoblotting (IB) of lysates with anti-MISRII (Left) Immunoblotting was also performed to detect MISRII expression in separated 3+, 3−, 3+/Ecad−, 3−Ecad+ of OVCAR-5 xenograft tumors (Right). COS cells transfected with a MISRII vector or a pcDNA empty vector served as positive or negative controls (Right). […] MOVCAR-8 (Left) or OVCAR-5 (Right) cells were treated with 20 ug/ml (Left) or 100 ug/ml (Right) MIS for 15 min, 2, 4 and 6 h, and protein was analyzed by Western blot using a phospho-Smad1/5/8 antibody.
(§2) Lysates were harvested in lysis buffer (Cell Signaling; catalog no. 9803) for 15 min from 80% subconfluent cells or from ascite cells after lysing red cells. Proteins were fractionated on SDS-polyacrylamide gels and transferred to a membrane. […] Blots were washed (three times) with TBST the following day for 30 min and incubated with the appropriate peroxidase-conjugated second antibodies for 1 h, and bound antibodies were detected with enhanced chemiluminescence (PerkinElmer Life Sciences).

[5] = test system: SMAD1/5/8 in OVCAR-5 cells; assay: Western blot with phospho-Smad1/5/8 antibody; format: cell-based, human; settings: OVCAR-5, 100 ug/ml MIS for 15 min, 2, 4 and 6 h
Experimental: as §1, §2

[6] = test system: Lin28 in OVCAR-5 cells or primary ascites; assay: Effect of exogenously administered MIS on Lin28 expression; format: cell-based, human; settings: separated or unseparated OVCAR-5 cells or primary ascites; data not shown
[7] = test system: ovarian cancer cells marked by CD44, CD24, and Epcam (3+); settings: cited from earlier work
[8] = test system: 3+/Ecad− population; settings: cited from earlier work
[9] = test system: epithelial ovarian cancers; settings: cited from earlier work
[10] = in vivo; cited from earlier work
[11] = test system: OVCAR-8 cells; settings: cited from earlier work
[12] = listed as human recombinant MIS

B1: MIS: 140 kDa glycoprotein disulfide linked homodimer secreted by fetal testes; produced recombinantly and immunoaffinity purified (protein, listed as Homo sapiens)
chain: MRDLPLTSLALVLSALGALLGTEALRAEEPAVGTSGLIFREDLDWPPGSPQEPLCLVALGGDSNGSSSPLRVVGALSAYEQAFLGAVQRARWGPRDLATFGVCNTGDRQAALPSLRRLGAWLRDPGGQRLVVLHLEEVTWEPTPSLRFQEPPPGGAGPPELALLVLYPGPGPEVTVTRAGLPGAQSLCPSRDTRYLVLAVDRPAGAWRGSGLALTLQPRGEDSRLSTARLQALLFGDDHRCFTRMTPALLLLPRSEPAPLPAHGQLDTVPFPPPRPSAELEESPPSADPFLETLTRLVRALRVPPARASAPRLALDPDALAGFPQGLVNLSDPAALERLLDGEEPLLLLLRPTAATTGDPAPLHDPTSAPWATALARRVAAELQAAAAELRSLPGLPPATAPLLARLLALCPGGPGGLGDPLRALLLLKALQGLRVEWRGRDPRGPGRAQRSAGATAADGPCALRELSVDLRAERSVLIPETYQANNCQGVCGWPQSDRNPRYGNHVVLLLKMQARGAALARPPCCVPTAYAGKLLISLSEERISAHHVPNMVATECGCR
modifications: homodimer
[1]
  colony formation of 3+/Ecad− cells: decreased colony formation; also recorded: decreases significantly; also recorded: significantly inhibited colony growth; also recorded: significant reduction in absolute colony number and cell number; also recorded: significant reduction in absolute colony numbers; also recorded: inhibited colony formation
[2]
  G1 distribution of 3+/Ecad+ population: neither MIS nor doxorubicin affected
  percentage of 3+/Ecad− cells in G1: inducing G1 arrest; also recorded: significantly increased; also recorded: G1 accumulation; also recorded: induces G1 cell cycle arrest
[3]; MOVCAR-7 and -8, 50 μg/mL MIS or 60 nM doxorubicin vs vehicle, 4 h
  p15 expression: specifically increased; also recorded: significant and opposite responses
[3]; MOVCAR-7 or -8, 50 μg/mL MIS or 60 nM doxorubicin, 4 h
  other CDK inhibitors mRNA levels (p18, p19, p21, p27): did not regulate significantly
[3]; MOVCAR-8, 50 μg/mL MIS vs vehicle, 4 h
  p16 expression: specifically increased
[3]; transgenic cell lines treated with MIS or doxorubicin, data not shown
  kinases tested (CDK2, CDK4, CDK6): unaffected
[4]
  SMAD1/5/8 phosphorylation: significantly increased
[4]; [12]
  SMAD1/5/8 phosphorylation: activates SMAD1/5/8 signaling
[5]
  SMAD1/5/8 phosphorylation: significantly increased
[5]; [12]
  SMAD1/5/8 phosphorylation: activates SMAD1/5/8 signaling
[6]
  effect on Lin28 expression: no direct effect
[7]
  inhibition of 3+ enriched population: significantly inhibited
[8]
  response of 3+/Ecad− population: responded well
[9]
  combination with commonly used cancer drugs to control tumor growth: synergistically or additively
[9]; in vitro and in vivo
  growth of epithelial ovarian cancers: inhibits their growth
[10]
  toxicity after prolonged therapy: without obvious toxicity
[11]
  P16 protein level: upregulated
